Columns and labels:
[1] = target: Vangl2 lacking the PDZ-binding motif at the C-terminal end; experiment: co-IP
[2] = target: Vangl2 lacking the Prickle-binding domain (UniProt Q91ZD4); experiment: co-IP
Chain of Vangl2 lacking the Prickle-binding domain (Q91ZD4 whole entry, the tested form may be a part): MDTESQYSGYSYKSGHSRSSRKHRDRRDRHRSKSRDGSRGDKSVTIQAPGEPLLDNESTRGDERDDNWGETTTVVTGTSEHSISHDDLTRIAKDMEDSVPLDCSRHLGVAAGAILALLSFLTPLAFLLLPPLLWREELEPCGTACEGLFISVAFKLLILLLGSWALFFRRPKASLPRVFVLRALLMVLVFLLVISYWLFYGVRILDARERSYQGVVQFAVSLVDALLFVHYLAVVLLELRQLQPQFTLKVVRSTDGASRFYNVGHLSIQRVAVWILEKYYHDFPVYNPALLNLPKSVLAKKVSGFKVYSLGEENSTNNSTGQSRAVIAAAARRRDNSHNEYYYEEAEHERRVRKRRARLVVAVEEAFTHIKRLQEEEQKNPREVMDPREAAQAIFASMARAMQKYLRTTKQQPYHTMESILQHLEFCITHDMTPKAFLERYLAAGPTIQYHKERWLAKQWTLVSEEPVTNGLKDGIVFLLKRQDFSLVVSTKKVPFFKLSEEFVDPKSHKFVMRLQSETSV

Chain of Vangl2 lacking the PDZ-binding motif at the C-terminal end (P84889 whole entry, the tested form may be a part): as the sequence (Q91ZD4 whole entry, the tested form may be a part) above

association in co-IP, percent of WT [1]: 87.1%
association in co-IP, percent of WT [2]: 28.4%
Substance: E-cadherin (from UniProt P09803 157-884) (natural protein)

Source: publication PMC4221783
